Experimental data from publication PMC4449276.

Biological target: chaperonin-containing TCP-1 (CCT), bovine (bovine) (UniProt Q32L40)
Test: native gel or EMSA

Substance “Hsc70ΔC_(DnaK189–195) (Hsc70ΔC with V189GAERNV195 substituted with DnaK TGNRTI) (from UniProt P19120 1-554) (domain or fragment)” has a percent of the wild-type CCT binding of 6%.

Substance “Hsc70ΔC_(DnaK189–192) (Hsc70ΔC with V189GAE192 changed to DnaK T185GN187) (from UniProt P19120 1-554) (domain or fragment)” has a percent of the wild-type CCT binding of 18%.

“DnaK_(Hsc70-185–190) (DnaK with T185GNRTI190 exchanged by Hsc70 V189GAERNV195) (from UniProt P0A6Y8 1-638) (natural protein)” gave a percent of the CCT binding of Hsc70 of 64%.
